Measurements as given in patent US20210292396A1.

Experiments:
Test in all cases: cell-based or functional assay
[1] = molecular target: Env of HIV isolate QH0692.42 (clade B) (HIV)
[2] = molecular target: HIV Env of isolate BG1168.01 (HIV)
[3] = molecular target: HIV Env of isolate ZM214.15 (HIV)
[4] = molecular target: HIV Env of isolate T280-5 (HIV)
[5] = molecular target: HIV Env of isolate CE703010217.B6 (HIV)
[6] = molecular target: Env of HIV isolate JRCSF.JB (clade B) (HIV)
[7] = molecular target: HIV Env of isolate CNE30 (HIV)
[8] = molecular target: HIV Env of isolate 242-14 (HIV)
[9] = molecular target: Envelope protein of SVA.MLV (clade NA)
[10] = molecular target: Env of HIV isolate 3718.v3.c11 (clade A) (HIV)
[11] = molecular target: HIV Env of isolate MB201.A1 (HIV)
[12] = molecular target: Env of HIV isolate ZM109.4 (clade C) (HIV)
[13] = molecular target: Env of HIV isolate 426c (clade C) (HIV)
[14] = molecular target: Env of HIV isolate 6631.v3.c10 (clade C) (HIV)
[15] = molecular target: HIV Env of isolate ZM135.10a (HIV)
[16] = molecular target: HIV Env of isolate QH0692.42 (HIV)
[17] = molecular target: HIV Env of isolate A03349M1.vrc4a (HIV)
[18] = molecular target: HIV Env of isolate DU151.02 (HIV)
[19] = molecular target: HIV Env of isolate DU172.17 (HIV)
[20] = molecular target: Env of HIV isolate CNE56 (clade AE) (HIV)
[21] = molecular target: Env of HIV isolate BG505.W6M.C2 (clade A) (HIV)
[22] = molecular target: HIV Env of isolate 26191-2.48 (HIV)
[23] = molecular target: Env of HIV isolate CH070.1 (clade BC) (HIV)
[24] = molecular target: Env of HIV isolate 0013095-2.11 (clade C) (HIV)
[25] = molecular target: HIV Env of isolate R2184.c4 (HIV)
[26] = molecular target: HIV Env of isolate 001428-2.42 (HIV)
[27] = molecular target: HIV Env of isolate MW965.26 (HIV)
[28] = molecular target: Env of HIV isolate 231965.c01 (clade D) (HIV)
[29] = molecular target: Env of HIV isolate ZM215.8 (clade C) (HIV)
[30] = molecular target: Env of HIV isolate 0077.v1.c16 (clade C) (HIV)
[31] = molecular target: Env of HIV isolate Q23.17 (clade A) (HIV)
[32] = molecular target: Env of HIV isolate CE703010217.B6 (clade C) (HIV)
[33] = molecular target: HIV Env of isolate BB201.B42 (HIV)
[34] = molecular target: HIV Env of isolate Q842.d12 (HIV)
[35] = molecular target: HIV Env of isolate Q769.d22 (HIV)
[36] = molecular target: Env of HIV isolate DU172.17 (clade C) (HIV)
[37] = molecular target: Env of HIV isolate A07412M1.vrc12 (clade D) (HIV)
[38] = molecular target: HIV Env of isolate ZM249.1 (HIV)
[39] = molecular target: Env of HIV isolate BJOX028000.10.3 (clade AE) (HIV)
[40] = molecular target: HIV Env of isolate 3016.v5.c45 (HIV)
[41] = molecular target: HIV Env of isolate JRCSF.JB (HIV) (UniProt P20871)
[42] = molecular target: Env of HIV isolate BL01.DG (clade B) (HIV)
[43] = molecular target: Env of HIV isolate C1080.c3 (clade AE) (HIV)
[44] = molecular target: Env of HIV isolate 5768.04 (clade B) (HIV)
[45] = molecular target: HIV Env of isolate BR07.DG (HIV)
[46] = molecular target: Env of HIV isolate ZM233.6 (clade C) (HIV)
[47] = molecular target: HIV Env of isolate Q259.17 (HIV)
[48] = molecular target: Env of HIV isolate BaL.26 (clade B) (HIV)
[49] = molecular target: HIV Env of isolate 3718.v3.c11 (HIV)
[50] = molecular target: HIV Env of isolate TRJO.58 (HIV)
[51] = molecular target: HIV Env of isolate 3301.v1.c24 (HIV)
[52] = molecular target: Env of HIV isolate 6101.10 (clade B) (HIV)
[53] = molecular target: HIV Env of isolate CNE15 (HIV)

Chain of HIV Env of isolate JRCSF.JB (HIV) (P20871 32-848 limits assumed): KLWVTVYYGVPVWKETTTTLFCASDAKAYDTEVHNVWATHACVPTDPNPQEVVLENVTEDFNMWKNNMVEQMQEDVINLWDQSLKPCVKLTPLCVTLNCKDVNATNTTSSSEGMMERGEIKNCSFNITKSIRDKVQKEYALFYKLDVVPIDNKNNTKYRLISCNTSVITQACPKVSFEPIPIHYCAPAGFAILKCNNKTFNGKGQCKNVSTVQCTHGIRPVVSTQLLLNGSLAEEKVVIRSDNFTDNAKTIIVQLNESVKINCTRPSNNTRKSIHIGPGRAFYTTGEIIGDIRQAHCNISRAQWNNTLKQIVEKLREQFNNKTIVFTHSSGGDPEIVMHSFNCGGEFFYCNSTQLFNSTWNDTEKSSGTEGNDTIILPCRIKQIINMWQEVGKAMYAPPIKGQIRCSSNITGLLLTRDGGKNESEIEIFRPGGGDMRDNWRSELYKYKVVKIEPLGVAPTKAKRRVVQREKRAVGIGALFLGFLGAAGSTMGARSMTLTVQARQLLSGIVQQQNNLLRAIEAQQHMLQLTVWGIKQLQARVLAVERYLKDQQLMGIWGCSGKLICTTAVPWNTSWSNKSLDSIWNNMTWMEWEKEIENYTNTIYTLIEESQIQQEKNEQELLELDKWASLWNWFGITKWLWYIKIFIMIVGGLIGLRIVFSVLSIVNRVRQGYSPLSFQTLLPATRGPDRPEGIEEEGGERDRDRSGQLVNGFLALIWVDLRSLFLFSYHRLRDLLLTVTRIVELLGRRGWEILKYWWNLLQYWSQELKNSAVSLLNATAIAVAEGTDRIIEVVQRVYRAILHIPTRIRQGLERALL

PGT121 (antibody)
IC50, pseudovirus neutralization [1]: 0.972 µg/mL
IC80 [2]: > 50 µg/mL
IC80, pseudovirus neutralization [3]: 1.57 µg/mL
IC80 [4]: 0.038 µg/mL
IC80, pseudovirus neutralization [5]: 0.0173 µg/mL
IC50, pseudovirus neutralization [6]: 0.0563 µg/mL
IC80, pseudovirus neutralization [7]: 0.296 µg/mL
IC80 [8]: > 50 µg/mL
IC50, pseudovirus neutralization [9]: > 50 µg/mL
IC50, pseudovirus neutralization [10]: 0.559 µg/mL
IC80 [11]: 0.0283 µg/mL
IC50, pseudovirus neutralization [12]: 1.96 µg/mL
IC50, pseudovirus neutralization [13]: > 50 µg/mL
IC50, pseudovirus neutralization [14]: > 50 µg/mL
IC80, pseudovirus neutralization [15]: 3.69 µg/mL
IC80 [16]: 5.8 µg/mL
IC80, pseudovirus neutralization [17]: 0.359 µg/mL
IC80, pseudovirus neutralization [18]: 0.0283 µg/mL
IC80, pseudovirus neutralization [19]: 0.41 µg/mL
IC50, pseudovirus neutralization [20]: > 50 µg/mL
IC50, pseudovirus neutralization [21]: 0.0513 µg/mL
IC80, pseudovirus neutralization [22]: 0.236 µg/mL
IC50, pseudovirus neutralization [23]: 0.0137 µg/mL
IC50, pseudovirus neutralization [24]: > 50 µg/mL
IC80 [25]: > 50 µg/mL
IC80, pseudovirus neutralization [26]: 0.108 µg/mL
IC80, pseudovirus neutralization [27]: 0.093 µg/mL
IC50, pseudovirus neutralization [28]: > 50 µg/mL
IC50, pseudovirus neutralization [29]: 0.0307 µg/mL
IC50, pseudovirus neutralization [30]: > 50 µg/mL
IC50, pseudovirus neutralization [31]: 0.0107 µg/mL
IC50, pseudovirus neutralization [32]: 0.007 µg/mL
IC80 [33]: 0.0243 µg/mL
IC80 [34]: 0.0597 µg/mL
IC80 [35]: > 50 µg/mL
IC50, pseudovirus neutralization [36]: 0.065 µg/mL
IC50, pseudovirus neutralization [37]: 0.042 µg/mL
IC80, pseudovirus neutralization [38]: > 50 µg/mL
IC50, pseudovirus neutralization [39]: > 50 µg/mL
IC80, pseudovirus neutralization [40]: > 50 µg/mL
IC80 [41]: 0.162 µg/mL
IC50, pseudovirus neutralization [42]: 19.6 µg/mL
IC50, pseudovirus neutralization [43]: > 50 µg/mL
IC50, pseudovirus neutralization [44]: 0.118 µg/mL
IC80 [45]: 0.596 µg/mL
IC50, pseudovirus neutralization [46]: 0.731 µg/mL
IC80 [47]: > 50 µg/mL
IC50, pseudovirus neutralization [48]: 0.0227 µg/mL
IC80 [49]: 4.76 µg/mL
IC80 [50]: 18.6 µg/mL
IC80 [51]: 0.05 µg/mL
IC50, pseudovirus neutralization [52]: 0.0123 µg/mL
IC80, pseudovirus neutralization [53]: > 50 µg/mL
